Data taken from paper PMC9814530, “Rapid de novo discovery of peptidomimetic affinity reagents for human angiotensin converting enzyme 2” (Communications Chemistry, 2022).
Where no end group is shown, it is not given here.

What follows are binders tested against T1, human angiotensin converting enzyme 2 (ACE2), recombinant (human, UniProt Q9BYF1 18-740) (assay: BLI; biotinylated peptide immobilised on streptavidin tips (loaded at 1.0-2.0 uM); protein in solution (ACE2 at 1000, 500, 250, 125 and 62.5 nM); 30 °C, 1000 rpm; 1 x PBS with 0.1% BSA and 0.02% Tween-20; 180 s association; global 1:1 fit; apparent KD). Conditions: both partners purified.
T1 construct: also called soluble ACE2; recombinant ACE2 protein; source: bought: Sino Biological (Catalog number 10108-H08H) for BLI
T1 sequence (Q9BYF1 18-740): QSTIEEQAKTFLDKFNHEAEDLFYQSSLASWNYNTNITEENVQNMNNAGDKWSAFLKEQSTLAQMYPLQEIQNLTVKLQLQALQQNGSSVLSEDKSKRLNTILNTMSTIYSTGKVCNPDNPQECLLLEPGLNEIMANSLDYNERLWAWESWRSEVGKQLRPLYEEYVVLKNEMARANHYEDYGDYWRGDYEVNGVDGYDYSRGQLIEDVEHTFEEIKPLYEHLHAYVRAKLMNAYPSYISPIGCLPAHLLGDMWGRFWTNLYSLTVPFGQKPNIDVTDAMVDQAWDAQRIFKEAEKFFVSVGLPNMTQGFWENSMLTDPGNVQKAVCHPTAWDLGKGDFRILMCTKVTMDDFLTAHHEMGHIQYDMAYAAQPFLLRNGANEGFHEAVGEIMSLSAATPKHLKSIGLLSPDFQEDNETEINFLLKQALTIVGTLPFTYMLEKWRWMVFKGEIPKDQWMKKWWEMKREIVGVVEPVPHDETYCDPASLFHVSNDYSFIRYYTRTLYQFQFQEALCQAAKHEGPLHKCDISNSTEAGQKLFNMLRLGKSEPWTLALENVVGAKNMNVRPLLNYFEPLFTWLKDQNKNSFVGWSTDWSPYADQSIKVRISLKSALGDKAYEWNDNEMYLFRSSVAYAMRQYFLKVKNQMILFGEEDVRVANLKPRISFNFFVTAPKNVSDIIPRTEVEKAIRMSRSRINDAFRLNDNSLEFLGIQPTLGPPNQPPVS

| Binder | Kd |
| --- | --- |
| LQWHPAYWFMQVK-NH2 (also: biotinylated, position not given here) [ACE2-binding peptide ABP C8] | 36 nM |
| LHKQFGWHWFGFK-NH2 (also: biotinylated, position not given here) [ACE2-binding peptide ABP C3] | 35 nM |
| LQRGVFGFPYRVK-NH2 (also: biotinylated, position not given here) [ACE2-binding peptide ABP C7] | 26 nM |
